Assay results as given in the supplement of paper PMC10724198.
± gives the standard deviation of the averaged measurements.

System: Saccharomyces cerevisiae
Assay: protein stability index of tFT-peptide fusion (C-terminal peptide) (PSI (0-1 scale)); higher = more stable (slower turnover)
Conditions: temperature: 30 C
Experimental: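 MPS profiling in S. cerevisiae of the yeast C-terminome library: the last 12 aa of each annotated ORF are fused to the C-terminus of a sfGFP-mCherry timer, after a GGGS linker. Cells are FACS-sorted into 8 mCherry/sfGFP bins and deep-sequenced. PSI runs from 0 (unstable) to 1 (stable); wild type and das1Δ backgrounds, two technical replicates each.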

[1] = genetic background: das1 deletion

Sequence | protein stability index [1] | protein stability index (genetic background: wild type)
EQEVIFTDLTAY [ECM32 C-terminal 12 aa] | 0.742 ± 0.015 | 0.7 ± 0.012
TGTSTEAPSAAN [NCL1 C-terminal 12 aa] | 0.6661 ± 0.00092 | 0.6578 ± 0.0053
LSADGIYTAVPN [PAU17 C-terminal 12 aa] | 0.695 ± 0.018 | 0.702 ± 0.011
SNSSKNRMNNYR [SPT6 C-terminal 12 aa] | 0.702 ± 0.017 | 0.721 ± 0.034
IGEFADNVMPLA [PRY2 C-terminal 12 aa] | 0.709 ± 0.026 | 0.712 ± 0.0076
SPISVDFSSYLS [NBP1 C-terminal 12 aa] | 0.734 ± 0.015 | 0.72 ± 0.058
LPFQKLKHLIKK [MRX11 C-terminal 12 aa] | 0.707 ± 0.031 | 0.706 ± 0.046
NKLKTLLAKIFD [IPI1 C-terminal 12 aa] | 0.708 ± 0.02 | 0.699 ± 0.053
NTDHKAGRSHLQ [PTC2 C-terminal 12 aa] | 0.713 ± 0.013 | 0.668 ± 0.038
GLNEVTRLIKGL [HTS1 C-terminal 12 aa] | 0.695 ± 0.011 | 0.641 ± 0.027
ELKRSGKLTRSV [TRM7 C-terminal 12 aa] | 0.699 ± 0.0086 | 0.662 ± 0.013
CIGDTDYIERYD [CDA1 C-terminal 12 aa] | 0.694 ± 0.015 | 0.685 ± 0.031
LSVIYMGWSPFY [TEL1 C-terminal 12 aa] | 0.716 ± 0.018 | 0.773 ± 0.032
VFKMIMFIASNE [STU1 C-terminal 12 aa] | 0.581 ± 0.0076 | 0.5559 ± 0.0028
DDNDDGDDDDDW [MYO3 C-terminal 12 aa] | 0.68701 ± 0.00044 | 0.7087 ± 0.0034
KKLSNDGETQAN [DMO2 C-terminal 12 aa] | 0.681 ± 0.013 | 0.655 ± 0.011
KGISIVESTFIS [YDR222W C-terminal 12 aa] | 0.704 ± 0.027 | 0.673 ± 0.022
HLGDPLWNFSVE [TMA20 C-terminal 12 aa] | 0.7244 ± 0.0043 | 0.707 ± 0.01
TIITKYEMLVRT [YOL134C C-terminal 12 aa] | 0.52 ± 0.015 | 0.5399 ± 0.0028
LQTMSFLMNHLI [YJL032W C-terminal 12 aa] | 0.6597 ± 0.0011 | 0.23 ± 0.042
VMKAKRKFNPYT [RRP7 C-terminal 12 aa] | 0.6859 ± 0.0013 | 0.6974 ± 0.0025
KQNSSITQKNSS [EPL1 C-terminal 12 aa] | 0.71115 ± 0.00071 | 0.697 ± 0.031

Sequence | protein stability index [1] | protein stability index (genetic background: wild type)
QNLDENVWRTPI [SSP1 C-terminal 12 aa] | 0.692 ± 0.011 | 0.672 ± 0.032
ELTKQHGNKDSN [RTK1 C-terminal 12 aa] | 0.7 ± 0.025 | 0.659 ± 0.0056
KMFAKYRENSRI [DYN3 C-terminal 12 aa] | 0.692 ± 0.017 | 0.667 ± 0.0047
TLWNDNTSYPFL [PDR3 C-terminal 12 aa] | 0.756 ± 0.015 | 0.7571 ± 0.0029
KVCVCMTINSYN [YDR154C C-terminal 12 aa] | 0.585 ± 0.027 | 0.583 ± 0.018
VKNVLSKVVPPV [MTC2 C-terminal 12 aa] | 0.688 ± 0.0078 | 0.669 ± 0.04
KYESATASALVN [RPS13 C-terminal 12 aa] | 0.697 ± 0.019 | 0.702 ± 0.015
IIRDFLIEKGFI [YNL320W C-terminal 12 aa] | 0.731 ± 0.024 | 0.667 ± 0.009
LHENQLLKWLSK [RRN5 C-terminal 12 aa] | 0.72567 ± 0.00036 | 0.7 ± 0.008
EYLQSMKTSINR [SFB2 C-terminal 12 aa] | 0.69 ± 0.024 | 0.695 ± 0.024
MKGPAALWDVQF [ARP9 C-terminal 12 aa] | 0.724 ± 0.012 | 0.744 ± 0.044
LPVSDSRCYYIL [YML031C-A C-terminal 12 aa] | 0.6921 ± 0.0021 | 0.343 ± 0.013
IALAEHRVERSN [CLB3 C-terminal 12 aa] | 0.718 ± 0.05 | 0.701 ± 0.033
HVAPYAIIPFII [DFG10 C-terminal 12 aa] | 0.724 ± 0.0075 | 0.151 ± 0.024
PCALYFKDHTAY [HUA2 C-terminal 12 aa] | 0.699 ± 0.021 | 0.7209 ± 0.0011
MKRSASYTGAKV [TPS2 C-terminal 12 aa] | 0.7 ± 0.02 | 0.709 ± 0.043
CEVYCSKNSCAS [YBR099C C-terminal 12 aa] | 0.6895 ± 0.0012 | 0.661 ± 0.031
VLAILFYPAWVE [YGR160W C-terminal 12 aa] | 0.5 ± 0.0098 | 0.529 ± 0.0053
EINNNLGVRLVD [DMA1 C-terminal 12 aa] | 0.711 ± 0.012 | 0.697 ± 0.026
YEEAVDLGWNKN [OYE3 C-terminal 12 aa] | 0.721 ± 0.009 | 0.714 ± 0.042
ASLVFPKEKQNV [APC4 C-terminal 12 aa] | 0.718 ± 0.034 | 0.6902 ± 0.00072
